Values quoted from earlier work in article PMC7395068, “The evolution of strategies to minimise the risk of human drug-induced liver injury (DILI) in drug discovery and development” (Archives of Toxicology, 2020).
Read-outs that look alike come from different tables or passages of the source.

Tests used:
[1] = cited from earlier work
[2] = cited from earlier work; remark: listed apart in the source
[3] = assignment in O'Brien 2006, ref O'Brien 2006
[4] = binary in vivo human DILI call, ref Chen 2016
[5] = human DILI, LTKB DILIrank category, ref Chen 2016
[6] = binary in vivo DILI call given beside the severity category, ref Chen 2016
[7] = human DILI concern category (LTKB DILIrank), ref Chen 2016

Row | Compound | DILI +VE (5-8), DILI -VE (-4) ([2]; in vivo) | DILI severity category ([2]; in vivo) | also measured
1 | CC1(C)[C@@H](O)CC[C@]2(C)[C@H]3C(=O)C=C4[C@@H]5C[C@@](C)(C(=O)O)CC[C@]5(C)CC[C@@]4(C)[C@]3(C)CC[C@@H]12 [18 beta-glycyrrhetic acid] | – | – | In vivo DILI ([1]; in vivo): -VE
2 | CC(=O)Nc1ccc2c(c1)Cc1ccccc1-2 [acetamido uorene] | – | – | In vivo DILI [1, 3]: +VE
3 | C=CCO [ally alcohol] | – | – | In vivo DILI [1, 3]: +VE
4 | c1ccc2c(c1)cc1ccc3cccc4ccc2c1c34 [benzopyrene] | – | – | In vivo DILI [1, 3]: +VE
5 | C[N+](C)(C)CC(=O)O.[Cl-] [betaine hcl (acidic)] | – | – | In vivo DILI [1, 3]: +VE
6 | Brc1ccccc1 [bromobenzene] | – | – | In vivo DILI [1, 3]: +VE
7 | CCCCSCCC(N)C(=O)O (centres unmarked) [buthionine] | – | – | In vivo DILI [1, 3]: +VE
8 | ClC(Cl)(Cl)Cl [carbon tetrachloride] | – | – | In vivo DILI [1, 3]: +VE
9 | CN(C)[C@@H]1C(O)=C(C(N)=O)C(=O)[C@@]2(O)C(O)=C3C(=O)c4c(O)ccc(Cl)c4[C@@](C)(O)[C@H]3C[C@@H]12 [chlortetracycline] | – | – | In vivo DILI ([1]; in vivo): +VE
10 | CC1(COc2ccc(CC3SC(=O)NC3=O)cc2)CCCCC1 (centres unmarked) [ciglitizone] | – | – | In vivo DILI ([1]; in vivo): -VE
11 | O=C(O)CC(O)(CC(=O)O)C(=O)O [citrate] | – | – | In vivo DILI ([1]; in vivo): -VE
12 | C=C1[C@@H](C)[C@H]2[C@H](Cc3ccccc3)NC(=O)[C@]23OC(=O)/C=C/[C@H](O)CCC[C@@H](C)C/C=C/[C@H]3[C@@H]1O [cytochalasin b] | – | – | In vivo DILI [1, 3]: +VE
13 | C=C1[C@@H](C)[C@H]2[C@H](Cc3ccccc3)NC(=O)[C@]23[C@H](OC(C)=O)/C=C/[C@@](C)(O)C(=O)[C@@H](C)C/C=C/[C@H]3[C@@H]1O [cytochalasin d] | – | – | In vivo DILI [1, 3]: +VE
14 | CC/C(=C(/CC)c1ccc(O)cc1)c1ccc(O)cc1 [diethylsilbesterol] | – | – | In vivo DILI ([1]; in vivo): +VE
15 | c1cc[n+]2c(c1)-c1cccc[n+]1CC2 [diquat] | – | – | In vivo DILI ([1]; in vivo): +VE
16 | C[C@]12CC[C@@H]3c4ccc(O)cc4CC[C@H]3[C@@H]1C[C@@H](O)[C@@H]2O [estriol] | – | – | In vivo DILI ([1]; in vivo): -VE
17 | CCSCC[C@H](N)C(=O)O [ethionine] | – | – | In vivo DILI [1, 3]: +VE
18 | C=CCc1ccc(O)c(OC)c1 [eugenol] | – | – | In vivo DILI ([1]; in vivo): +VE
19 | O=S(=O)([O-])[O-].[Fe+2] [ferrous sulfate] | – | – | In vivo DILI ([1]; […]): +VE
20 | CC1(C)O[C@@H]2C[C@H]3[C@@H]4C[C@H](F)C5=CC(=O)C=C[C@]5(C)[C@H]4[C@@H](O)C[C@]3(C)[C@]2(C(=O)CO)O1 [flunisolide] | – | – | In vivo DILI ([1]; […]): -VE
21 | C=O [formaldehyde] | – | – | In vivo DILI ([1]; in vivo): +VE
22 | N[C@H]1C(O)O[C@H](CO)[C@@H](O)[C@@H]1O (some centres unmarked) [glucosamine] | – | – | In vivo DILI [1, 3]: +VE

Row | Compound | DILI +VE (5-8), DILI -VE (-4) ([2]; in vivo) | DILI severity category ([2]; in vivo) | also measured
23 | Cl [hydrochloric acid] | – | – | In vivo DILI ([1]; in vivo): +VE
24 | COc1ccc2c3c1O[C@H]1C(=O)CC[C@H]4[C@@H](C2)N(C)CC[C@]314 [hydrocodone] | – | – | In vivo DILI ([1]; in vivo): -VE
25 | C[C@H](CCC(=O)O)C[C@H](C)C[C@H](C)C(=O)/C=C(\O)[C@H](C)C[C@H](C)C/C=C/[C@@H](C)[C@@H](O)[C@@H](C)[C@@H](O)C[C@@H]1CC[C@@](C)([C@H]2CC[C@@](C)([C@@H](C)O)O2)O1 [ionomycin] | – | – | In vivo DILI [1, 3]: +VE
26 | CCNC(=O)[C@@H]1CCCN1C(=O)[C@H](CCCNC(=N)N)NC(=O)[C@H](CC(C)C)NC(=O)[C@@H](CC(C)C)NC(=O)[C@H](Cc1ccc(O)cc1)NC(=O)[C@H](CO)NC(=O)[C@H](Cc1c[nH]c2ccccc12)NC(=O)[C@H](Cc1c[nH]cn1)NC(=O)[C@@H]1CCC(=O)N1 [leuprolide] | – | – | In vivo DILI ([1]; in vivo): -VE
27 | Cc1cccc(O)c1 [m-cresol] | – | – | In vivo DILI ([1]; in vivo): +VE
28 | O=C(O)CC(=O)O [malonic acid] | – | – | In vivo DILI ([1]; in vivo): +VE
29 | Cc1coc2c1CCC(C)C2 (centres unmarked) [menthofuran] | – | – | In vivo DILI ([1]; […]): +VE
30 | C#C[C@]1(O)CC[C@H]2[C@@H]3CCc4cc(OC)ccc4[C@H]3CC[C@@]21C [mestranol] | – | – | In vivo DILI ([1]; […]): -VE
31 | C[C@H](N)[C@H](O)c1cccc(O)c1 [metaraminol] | – | – | In vivo DILI ([1]; […]): -VE
32 | CBr [methyl bromide] | – | – | In vivo DILI ([1]; […]): -VE
33 | CC[C@@]1([C@@H]2O[C@@H]([C@H]3O[C@@](O)(CO)[C@H](C)C[C@@H]3C)C[C@@H]2C)CC[C@H]([C@]2(C)CC[C@]3(C[C@H](O)[C@@H](C)[C@@H]([C@@H](C)[C@@H](OC)[C@H](C)C(=O)O)O3)O2)O1 [monensin] | – | – | In vivo DILI ([1]; in vivo): +VE
34 | O=C(O)CC[N+](=O)[O-] [nitroproprionic acid] | – | – | In vivo DILI [1, 3]: +VE
35 | CN(C)N=O [nitrosodimethylamine] | – | – | In vivo DILI [1, 3]: +VE
36 | NC(=O)N1c2ccccc2CC(=O)c2ccccc21 [oxcarbazeptin] | – | – | In vivo DILI ([1]; ref Schadt 2015): +VE
37 | corticotropin (SYSMEHFRWGKPVGKKRRPVKVYPNGAEDESAEAFPLEF; Corticotropin; UniProt P01189 138-176, looked up) | – | – | DILI +VE (5-8), DILI -VE (-4) [2, 4]: -VE; DILI severity category [2, 5]: vNo-DILI-Concern
38 | dalteparin sodium | +VE | vLess-DILI-Concern | –
39 | denileukin diftitox | – | – | DILI +VE (5-8), DILI -VE (-4) [2, 4]: -VE; DILI severity category [2, 5]: Ambiguous DILI-concern
40 | ecallantide | -VE | vNo-DILI-Concern | –
41 | enoxaparin | +VE | vLess-DILI-Concern | –
42 | epoetin alfa | -VE | vNo-DILI-Concern | –
43 | erythropoietin | -VE | vNo-DILI-Concern | –
44 | etanercept | +VE | vLess-DILI-Concern | –

Row | Compound | DILI +VE (5-8), DILI -VE (-4) ([2]; in vivo) | DILI severity category ([2]; in vivo) | also measured
45 | exenatide | – | – | DILI +VE (5-8), DILI -VE (-4) [2, 4]: -VE; DILI severity category [2, 5]: vNo-DILI-Concern
46 | ferumoxides | -VE | vNo-DILI-Concern | –
47 | ferumoxytol | -VE | vNo-DILI-Concern | –
48 | filgrastim | -VE | Ambiguous DILI-concern | –
49 | galsulfase | -VE | vNo-DILI-Concern | –
50 | gemtuzumab ozogamicin | – | – | DILI +VE (5-8), DILI -VE (-4) [2, 4]: +VE; DILI severity category [2, 5]: vMost-DILI-Concern
51 | glatiramer acetate | – | – | DILI +VE (5-8), DILI -VE (-4) [2, 4]: -VE; DILI severity category [2, 5]: Ambiguous DILI-concern
52 | golimumab | -VE | Ambiguous DILI-concern | –
53 | heparin sodium | +VE | vLess-DILI-Concern | –
54 | hyaluronidase | -VE | vNo-DILI-Concern | –
55 | infliximab | +VE | vMost-DILI-Concern | –
56 | interferon alfacon-1 | +VE | vMost-DILI-Concern | –
57 | interferon beta-1b | +VE | vMost-DILI-Concern | –
58 | lepirudin | -VE | Ambiguous DILI-concern | –
59 | mecasermin | -VE | Ambiguous DILI-concern | –
60 | muromonab-cd3 | -VE | Ambiguous DILI-concern | –
61 | natalizumab | +VE | vMost-DILI-Concern | –
62 | nesiritide | -VE | vNo-DILI-Concern | –
63 | ofatumumab | -VE | vNo-DILI-Concern | –
64 | omalizumab | -VE | vNo-DILI-Concern | –
65 | palivizumab | – | – | DILI +VE (5-8), DILI -VE (-4) [2, 6]: -VE; DILI severity category [2, 7]: vNo-DILI-Concern
66 | panitumumab | -VE | vNo-DILI-Concern | –

Row | Compound | DILI +VE (5-8), DILI -VE (-4) ([2]; in vivo) | DILI severity category ([2]; in vivo) | also measured
67 | peginterferon alfa-2a | -VE | Ambiguous DILI-concern | –
68 | pentosan polysulfate | -VE | Ambiguous DILI-concern | –
69 | polyethylene glycol 3350 | -VE | vNo-DILI-Concern | –
70 | polymyxin b sulfate | – | – | DILI +VE (5-8), DILI -VE (-4) [2, 6]: -VE; DILI severity category [2, 7]: vNo-DILI-Concern
71 | pramlintide (KCNTATCATQRLANFLVHSSNNFGPILPPTNVGSNTY; chains of the INN, looked up) | -VE | vNo-DILI-Concern | –
72 | protamine sulfate | -VE | vNo-DILI-Concern | –
73 | rilonacept | -VE | vNo-DILI-Concern | –
74 | romiplostim | -VE | vNo-DILI-Concern | –
75 | sacrosidase | -VE | Ambiguous DILI-concern | –
76 | sargramostim | -VE | vNo-DILI-Concern | –
77 | secretin | – | – | DILI +VE (5-8), DILI -VE (-4) [2, 6]: -VE; DILI severity category [2, 7]: vNo-DILI-Concern
78 | simethicone | -VE | vNo-DILI-Concern | –
79 | somatropin recombinant | -VE | vNo-DILI-Concern | –
80 | sucralfate | – | – | DILI +VE (5-8), DILI -VE (-4) [2, 6]: -VE; DILI severity category [2, 7]: vNo-DILI-Concern
81 | teriparatide | -VE | vNo-DILI-Concern | –
82 | tinzaparin | – | – | DILI +VE (5-8), DILI -VE (-4) [2, 6]: -VE; DILI severity category [2, 7]: Ambiguous DILI-concern
83 | triptorelin pamoate | +VE | vLess-DILI-Concern | –
84 | urokinase | -VE | vNo-DILI-Concern | –
85 | ustekinumab | -VE | vNo-DILI-Concern | –
86 | verteporfin | -VE | Ambiguous DILI-concern | –
87 | vitamin e | -VE | – | –
